The results in this text go back to article PMC5432575, “CRP Regulates D-Lactate Oxidation in Shewanella oneidensis MR-1”.

Series [1] concerns the target T1, CRP (N-his-CRP) (Shewanella oneidensis MR-1) (UniProt Q8EJ49).
T1 sequence: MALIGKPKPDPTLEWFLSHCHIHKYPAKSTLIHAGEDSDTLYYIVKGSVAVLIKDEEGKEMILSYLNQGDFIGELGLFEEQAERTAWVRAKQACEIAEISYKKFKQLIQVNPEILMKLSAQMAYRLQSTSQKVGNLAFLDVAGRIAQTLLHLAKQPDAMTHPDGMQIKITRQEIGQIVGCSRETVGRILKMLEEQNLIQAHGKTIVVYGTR
Put plainly: EMSA. The conditions noted are these: 20 ul: 2 nM Cy3-labeled probe, 50 ng N-his-CRP, 50 uM cAMP, buffer as in Kasai et al. 2015 (salt, pH, temperature not given).

A further series concerns the target CRP (N-his-CRP) (Shewanella oneidensis MR-1, UniProt Q8EJ49 1-211). The experiment in a line: EMSA; 50 uM cAMP; EMSA, 20 ul: 2 nM Cy3-labeled probe, 50 ng N-his-CRP, 50 uM cAMP; buffer as in Kasai et al. 2015 (salt, pH, temperature not given). The conditions noted are these: protein: recombinant; tags: N-terminal His tag; chain copies: 2; label: 5'-Cy3 (forward strand); blunt.

For the molecule “GGATCAGTTAATTGCAATACTGATAGCTAATTTAATGAAAATTTCCTTTTTTATAACTATCTGACATGTTTTTTAAAAAAATATTTGAATGGAGTTATATATACCCCACTCTTTAAGTGACA (double strand) [PBlldP1]”, the binding result in series [1] is “no binding”.
For “GGATCAGTTAATTGCAATACTGATAGCTAATTTAATGAAAATTTCCTTTTTTATAACTATCTGACATGTTTTTTAAAAAAATATTTGAATGGAGTTATATATACCCCACTCTTTAAGTGACACCGATCACAGTTAAGAAAATCCCATGAGAGAAGCCTCCCGCAGCACTGTAAATTAGCATT (double strand) [PBlldP2]”, the binding entry in series [1] is given as “binds”.

B1: PBlldP3 (dsDNA)
DNA 1: ATATACCCCACTCTTTAAGTGACACCGATCACAGTTAAGAAAATCCCATG
DNA 2: CATGGGATTTTCTTAACTGTGATCGGTGTCACTTAAAGAGTGGGGTATAT
For the molecule B1, in the series with CRP (N-his-CRP), the binding result is “binds”.

B2: PBlldP3m (dsDNA)
DNA 1: ATATACCCCACTCTTTACCCCCCACCGAGGGGGGTTAAGAAAATCCCATG
DNA 2: CATGGGATTTTCTTAACCCCCCTCGGTGGGGGGTAAAGAGTGGGGTATAT
Turning to B2, the binding result with CRP (N-his-CRP) is on record as “no binding”.
